Test results taken from US20220017612A1 (TILOS THERAPEUTICS, published 2022).
Several values for one entry are separate records, joined by “and”; a condition that tells them apart may be missing. Equal values may be shown once.

T1: human LAP-TGFβ2 overexpressed on HT1080 cells (human, UniProt P61812 21-414)
T1 construct: also called HT1080-huB2
T1 sequence: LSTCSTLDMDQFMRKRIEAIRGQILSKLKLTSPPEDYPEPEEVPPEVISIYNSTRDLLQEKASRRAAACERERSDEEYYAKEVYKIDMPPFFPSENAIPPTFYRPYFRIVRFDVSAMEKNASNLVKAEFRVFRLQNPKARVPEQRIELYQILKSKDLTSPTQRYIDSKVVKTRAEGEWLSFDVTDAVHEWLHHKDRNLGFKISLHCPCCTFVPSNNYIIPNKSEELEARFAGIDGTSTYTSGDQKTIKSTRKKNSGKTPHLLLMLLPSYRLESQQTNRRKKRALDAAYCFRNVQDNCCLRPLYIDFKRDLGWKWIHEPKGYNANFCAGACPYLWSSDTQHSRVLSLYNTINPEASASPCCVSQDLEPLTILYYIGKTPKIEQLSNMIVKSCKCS

T2: human LAP-TGFβ3 overexpressed on HT1080 cells (human, UniProt P10600 24-412)
T2 construct: also called HT1080-huB3
T2 sequence: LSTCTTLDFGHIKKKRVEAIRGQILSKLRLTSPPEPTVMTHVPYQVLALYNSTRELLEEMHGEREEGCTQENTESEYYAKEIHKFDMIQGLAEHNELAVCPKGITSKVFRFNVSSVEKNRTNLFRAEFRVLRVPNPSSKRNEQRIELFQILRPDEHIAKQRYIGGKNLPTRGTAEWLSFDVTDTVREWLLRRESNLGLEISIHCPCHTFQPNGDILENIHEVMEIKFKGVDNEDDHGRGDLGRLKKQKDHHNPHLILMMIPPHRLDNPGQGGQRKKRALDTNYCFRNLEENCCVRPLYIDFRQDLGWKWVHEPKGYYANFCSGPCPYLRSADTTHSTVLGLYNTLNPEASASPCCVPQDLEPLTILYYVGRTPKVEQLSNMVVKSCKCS


Tests used:
[1] = target: T3, human LAP-TGFβ1 overexpressed on cells (human, UniProt P01137 30-390); assay: flow cytometry; legend box on the sheet: black HT1080-null, grey HT1080-huB1
T3 construct: HT1080 or P3U1 cells overexpressing wild-type human LAP-TGFβ1; also called HT1080-huB1; HT1080-hβ1
T3 sequence (P01137 30-390): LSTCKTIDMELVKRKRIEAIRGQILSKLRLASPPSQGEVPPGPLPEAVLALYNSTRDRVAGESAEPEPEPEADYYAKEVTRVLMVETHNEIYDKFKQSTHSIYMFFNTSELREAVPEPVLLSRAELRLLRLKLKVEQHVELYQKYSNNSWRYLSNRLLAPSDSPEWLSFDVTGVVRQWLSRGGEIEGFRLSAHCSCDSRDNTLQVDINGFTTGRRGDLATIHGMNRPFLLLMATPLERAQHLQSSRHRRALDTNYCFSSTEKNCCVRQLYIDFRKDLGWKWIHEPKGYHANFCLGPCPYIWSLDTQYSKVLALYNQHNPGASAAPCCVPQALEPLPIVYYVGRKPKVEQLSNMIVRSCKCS

[2] = target: T3, human LAP-TGFβ1 overexpressed on cells; assay: cell-based or functional assay
[3] = target: murine LAP-TGFβ1 overexpressed on cells (mouse, UniProt P04202 30-390); assay: cell-based or functional assay
Sequence of murine LAP-TGFβ1 overexpressed on cells (P04202 30-390): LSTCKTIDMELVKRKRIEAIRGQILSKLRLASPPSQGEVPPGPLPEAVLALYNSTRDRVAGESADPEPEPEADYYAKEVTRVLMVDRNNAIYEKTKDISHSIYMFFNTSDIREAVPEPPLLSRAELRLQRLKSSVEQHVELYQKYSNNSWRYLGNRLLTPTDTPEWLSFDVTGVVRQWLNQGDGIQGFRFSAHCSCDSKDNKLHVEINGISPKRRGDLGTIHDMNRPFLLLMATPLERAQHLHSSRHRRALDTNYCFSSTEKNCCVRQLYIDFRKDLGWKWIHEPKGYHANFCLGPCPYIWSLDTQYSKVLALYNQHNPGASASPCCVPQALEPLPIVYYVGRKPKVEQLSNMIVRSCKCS

[4] = target: T1, human LAP-TGFβ2 overexpressed on HT1080 …; assay: flow cytometry titration, HT1080-huB2 cells
Procedure: (§1) This Example describes the binding of anti-LAP antibodies to LAP-TGFβ isoforms and LAP-TGFβ variants. In addition to antibodies 28G11_hIgG1, 22F9_hIgG1, and 20E6_hIgG1, anti-LAP antibodies 17G8_hIgG1, 24E3_hIgG1, and 2C9_(hyb) were also tested in this experiment. Briefly, 4×10⁵ each of (a) HT1080 cells, (b) HT1080 cells overexpressing human LAP-TGFβ1, (c) HT1080 cells overexpressing human LAP-TGFβ2, (d) HT1080 cells overexpressing human LAP-TGFβ3, (e) HT1080 cells overexpressing murine LAP-TGFβ1, (f) P3U1 cells, (g) P3U1 cells overexpressing LAP-TGFβ1 and GARP, and (h) P3U1 cells overexpressing LAP-TGFβ1 and LRRC33 were cultured in 96-well plates. The plates were centrifuged for 5 min at 1,500 rpm, liquid was removed, and cells were resuspended with 200 μL FACS buffer. The plates were centrifuged again, diluted primary antibody was added to each well, and the plates were incubated on ice for 20 minutes, followed by centrifugation. The cells were resuspended in 200 μL FACS buffer, centrifuged again, and resuspended in 50 μL diluted secondary antibody (Alexa647-anti-Human IgG or APC-anti-Mouse IgG). The plates were incubated on ice for 20 minutes in the dark, washed twice with 200 μL FACS buffer, and cells from each well (in 200 μL FACS buffer) were read on the Attune NXT instrument.

[5] = target: T4, murine LAP-TGFβ1 with a C-terminal polyhistidine purification tag (mouse, UniProt P04202 30-390); assay: BLI, antibody on tip, 1:1 model
T4 construct: also called Mouse LAP-TGFβ1
T4 sequence (P04202 30-390 limits assumed): as the sequence (P04202 30-390) above
Procedure: (§2) The chimeric antibodies were biotinylated using EZ-Link SulfoNHS-LC-Biotin (ThermoFisher). A streptavidin-functionalized tip was equilibrated in binding buffer (10 mM sodium phosphate, 150 mM sodium chloride, 1% (w/v) bovine serum albumin, 0.05% (w/v) sodium azide, pH 7.4). The tip was dipped in a 10 μg/mL solution of biotinylated, chimeric anti-LAP in binding buffer for 15 seconds to load the tip with antibody. The antibody-loaded tip was then washed in binding buffer and placed in a solution containing 0-24 nM of LAP-TGFβ1 (either a fusion protein containing a human IgG1 Fc domain fused to human LAP-TGFβ1 or a murine LAP-TGFβ1 with a C-terminal polyhistidine purification tag). The antigen was allowed to bind to antibody for 5 minutes (association phase), and then the tip was moved to binding buffer (dissociation phase). The association and dissociation phases were fit to a 1:1 binding model to determine the binding rate constants.

[6] = target: T5, fusion protein of a human IgG1 Fc domain and human LAP-TGFβ1 (human, UniProt P01137 30-390); assay: BLI, antibody on tip, 1:1 model
T5 construct: printed both as Fc-huB1 and LAP-TGFβ-Fc; also called Fc-huB1; Fc-human LAP
T5 sequence (P01137 30-390 limits assumed): as the sequence (P01137 30-390) above
Procedure: as §2

[7] = target: T6, human-chicken LAP-TGFβ1 chimera #2.2 on HT1080 cells (human/chicken chimera, UniProt P01137 30-390); assay: flow cytometry, HT1080 cells; grey bar = no anti-LAP antibody
T6 construct: also called HT1080-ch2.2
T6 sequence (P01137 other isoform, or with tags, fused parts or gaps mutant): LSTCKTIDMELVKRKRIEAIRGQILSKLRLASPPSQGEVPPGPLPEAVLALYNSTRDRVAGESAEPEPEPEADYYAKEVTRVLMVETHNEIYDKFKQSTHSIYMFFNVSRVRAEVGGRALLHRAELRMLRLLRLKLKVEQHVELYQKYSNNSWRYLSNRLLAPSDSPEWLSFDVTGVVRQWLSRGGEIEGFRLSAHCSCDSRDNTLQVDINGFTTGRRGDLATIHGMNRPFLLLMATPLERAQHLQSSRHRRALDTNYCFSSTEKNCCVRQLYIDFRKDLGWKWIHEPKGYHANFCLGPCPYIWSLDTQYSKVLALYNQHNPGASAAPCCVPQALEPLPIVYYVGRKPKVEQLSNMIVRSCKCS
Procedure: as §1
(§3) Cells were processed for flow cytometry in the same manner described above for the isoform-specific binding experiments.

[8] = target: T7, human LAP-TGFβ1 with K27C and Y75C mutations on HT1080 cells (human, UniProt P01137 30-390); assay: as above
T7 construct: also called closed conformation
T7 sequence (P01137 other isoform, or with tags, fused parts or gaps K27C Y75C K27C Y75C): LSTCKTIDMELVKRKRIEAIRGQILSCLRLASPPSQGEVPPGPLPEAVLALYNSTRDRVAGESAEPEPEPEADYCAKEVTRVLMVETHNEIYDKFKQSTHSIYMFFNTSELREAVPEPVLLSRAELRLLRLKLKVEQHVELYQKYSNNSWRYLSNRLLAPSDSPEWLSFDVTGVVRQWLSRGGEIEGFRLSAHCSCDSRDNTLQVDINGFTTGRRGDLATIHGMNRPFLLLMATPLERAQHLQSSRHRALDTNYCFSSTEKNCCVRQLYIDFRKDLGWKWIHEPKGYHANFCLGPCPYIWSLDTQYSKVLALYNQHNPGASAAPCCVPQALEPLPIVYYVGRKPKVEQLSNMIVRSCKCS
Procedure: as §1, §3

[9] = target: T8, human LAP-TGFβ1 with a Y74T mutation on HT1080 cells (human, UniProt P01137 30-390); assay: as above
T8 construct: also called HT1080-Y74T; open conformation
T8 sequence (P01137 other isoform, or with tags, fused parts or gaps Y74T Y74T): as the sequence (P01137 other isoform, or with tags, fused parts or gaps K27C Y75C K27C Y75C) above, with C27K, Y74T, C75Y counted along it
Procedure: as §1, §3

[10] = target: T9, LAP-only variant of human TGFβ1 (empty LAP) on HT1080 cells (human, UniProt P01137 30-277); assay: as above
T9 construct: LAP without the mature cytokine; also called HT1080-emptyLAP; LAP-only construct
T9 sequence (P01137 30-277, change not shown): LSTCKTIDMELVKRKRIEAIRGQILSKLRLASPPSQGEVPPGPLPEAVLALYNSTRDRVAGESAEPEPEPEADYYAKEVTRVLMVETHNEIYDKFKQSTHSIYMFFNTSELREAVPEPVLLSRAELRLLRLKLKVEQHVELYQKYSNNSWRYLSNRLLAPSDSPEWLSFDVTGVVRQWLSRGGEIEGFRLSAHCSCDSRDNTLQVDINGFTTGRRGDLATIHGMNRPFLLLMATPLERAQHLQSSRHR
Procedure: as §1, §3

[11] = target: T2, human LAP-TGFβ3 overexpressed on HT1080 …; assay: flow cytometry titration, HT1080-huB3 cells
Procedure: as §1

[12] = target: T10, mature human TGFβ1 (free TGFβ1, without LAP) (human, UniProt P01137 279-390); assay: TGFβ1 ELISA after pre-incubation of 1000 pg mature TGFβ1 with antibody; loss of signal reflects binding
T10 construct: also called mature TGFβ; free human TGFβ1
T10 sequence (P01137 279-390 limits assumed): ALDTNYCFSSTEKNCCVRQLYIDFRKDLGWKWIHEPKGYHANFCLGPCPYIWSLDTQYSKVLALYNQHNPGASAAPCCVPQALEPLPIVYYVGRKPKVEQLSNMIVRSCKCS
Procedure: To determine whether anti-LAP antibodies 28G11_hIgG1, 22F9_hIgG1, 20E6_hIgG1, 17G8_hIgG1, and 24E3_hIgG1, bind to free human TGFβ1 (i.e., mature TGFβ1 that lacks LAP), the ability of the antibodies to inhibit an anti-TGFβ ELISA was evaluated. Briefly, mature TGFβ1 (1000 pg) was incubated with the indicated anti-LAP antibodies at 10 μg/mL, an isotype control antibody as a negative control or the commercially available anti-TGFβ antibody 1D11 as a positive control for 10 minutes on ice. For example, the 1D11 antibody is commercially available from any number of sellers, for example Bio x Cell Inc. (West Lebanon, N.H.). Supernatants were assayed in a TGFβ1 ELISA (R&D Systems) according to the manufacturer instructions to measure free TGFβ1. […] Note that Figure and FIG. are used interchangeably in this application.

[13] = target: T3, human LAP-TGFβ1 overexpressed on cells; assay: cell-based or functional assay; remark: listed apart in the source
[14] = target: T11, human GARP and human LAP-TGFβ1 co-expressed on P3U1 cells (human, UniProt Q14392 20-662); assay: flow cytometry, P3U1 cells
T11 construct: whole, on cells; also called P3U1 cells over-expressing human GARP and LAP-TGFβ1
T11 sequence (chain, as listed by the source, chain 1 of 2): as the sequence (P01137 30-390) above
T11 sequence (Q14392 20-662, chain 2 of 2): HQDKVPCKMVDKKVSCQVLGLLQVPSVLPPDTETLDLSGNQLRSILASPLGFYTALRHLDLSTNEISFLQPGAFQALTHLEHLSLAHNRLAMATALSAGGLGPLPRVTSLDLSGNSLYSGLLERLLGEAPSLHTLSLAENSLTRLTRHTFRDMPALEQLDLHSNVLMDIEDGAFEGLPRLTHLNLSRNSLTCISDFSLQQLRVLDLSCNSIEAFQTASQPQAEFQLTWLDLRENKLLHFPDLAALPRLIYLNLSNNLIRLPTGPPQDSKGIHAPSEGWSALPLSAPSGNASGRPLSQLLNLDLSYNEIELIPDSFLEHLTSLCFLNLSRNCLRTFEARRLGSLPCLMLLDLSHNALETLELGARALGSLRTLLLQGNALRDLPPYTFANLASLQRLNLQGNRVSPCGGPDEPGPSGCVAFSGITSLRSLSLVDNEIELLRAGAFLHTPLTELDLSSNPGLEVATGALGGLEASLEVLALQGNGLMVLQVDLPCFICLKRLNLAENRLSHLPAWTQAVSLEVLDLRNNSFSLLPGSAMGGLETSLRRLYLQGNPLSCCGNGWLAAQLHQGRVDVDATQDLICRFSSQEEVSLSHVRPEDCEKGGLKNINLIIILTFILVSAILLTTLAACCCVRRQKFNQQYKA
Procedure: as §1

[15] = target: T12, human-chicken LAP-TGFβ1 chimera #2.3 on HT1080 cells (human/chicken chimera, UniProt P01137 30-390); assay: flow cytometry, HT1080 cells; grey bar = no anti-LAP antibody
T12 construct: also called HT1080-ch2.3
T12 sequence (P01137 other isoform, or with tags, fused parts or gaps mutant): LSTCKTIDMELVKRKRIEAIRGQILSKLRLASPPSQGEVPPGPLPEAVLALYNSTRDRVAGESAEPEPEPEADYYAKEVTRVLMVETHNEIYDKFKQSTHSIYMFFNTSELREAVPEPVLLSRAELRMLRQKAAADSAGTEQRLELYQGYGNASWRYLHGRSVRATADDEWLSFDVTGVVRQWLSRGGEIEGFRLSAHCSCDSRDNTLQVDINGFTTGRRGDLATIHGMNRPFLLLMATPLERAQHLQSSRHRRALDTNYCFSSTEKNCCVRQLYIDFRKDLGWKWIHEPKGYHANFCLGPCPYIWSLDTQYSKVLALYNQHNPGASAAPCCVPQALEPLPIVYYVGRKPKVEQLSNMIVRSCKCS
Procedure: as §1, §3

binding result [1] | binding result [4] | binding result [7] | binding result [8] | binding result [9] | binding result [10] | binding result [11] | binding result [12] | IC50 of inhibition of TGFβ1 activation [2] | IC50 of inhibition of TGFβ1 activation [3] | binding result [14] | binding result [15] | Binder | also measured
binds | – | – | – | – | – | – | – | – | – | – | – | 28G11_H2.1L3 (antibody, human IgG1, kappa, V domains shown) VH: EVQLVESGGGLVQPGGSLRLSCAASGFTFTDYYMSWVRQAPGKGLEWLGFIRNKPQGYTTEYSASVKGRFTISRDNSQSSLYLQMNSLKTEDTAVYYCARYTGGGYFDYWGQGTLLTVSS VL: DIQMTQSPSSLSASVGDRLTISCRASQDISNYLNWYQQKPGKTVKLLIYYTSRLHSGVPSRFSGSGSGTDYTLTISSLQPEDVATYFCQQGDTLPWTFGQGTKLEIKR | –
binds | – | – | – | – | – | – | – | – | – | – | – | 28G11_H2aL3a (antibody, human IgG1, kappa, V domains shown) VH: EVQLVESGGGLVQPGGSLRLSCAASGFTFTDYYMSWVRQAPGKGLEWVGFIRNKPNGYTTEYSASVKGRFTISRDNSKNSLYLQMNSLKTEDTAVYYCARYTGGGYFDYWGQGTLVTVSS VL: DIQMTQSPSSLSASVGDRLTISCRASQDISNYLNWYQQKPGKVVKLLIYYTSRLHSGVPSRFSGSGSGTDYTLTISSLQPEDVATYYCQQGDTLPWTFGQGTKLEIKR | –
– | no binding (tested: about 800 ng/well) | no binding | binds | no binding | no binding | no binding (tested: about 800 ng/well) | no binding (tested: 10 µg/mL) | 2.5 µg/mL and 2.6 µg/mL | 1.1 µg/mL and 0.76 µg/mL | binds | binds | 24E3_hIgG1 (antibody, V domains shown) VH: QAYLQQSGAELVRPGASVKMSCKASGYTFTSYNMHWVKQTPRQGLEWIGAIYPGNGDTSYNPKFKGKATLTVDKSSSTAYMQLSSLTSEDSAVYFCTRWDWGGYFDVWGTGTTVTVSS VL: DIQMTQTTSSLSASLGDRVTISCRASQDISNYLNWYQQKPDGTVKLLIYYTSRLHSGVPSRFSGSGSGTDYSLTISNLEQEDIATYFCQQGDTLPWTFGGGTKLGIK | –

Second part, the binder before the results:

Binder | binding result [1] | binding result [4] | binding result [7] | binding result [8] | binding result [9] | binding result [10] | binding result [11] | binding result [12] | IC50 of inhibition of TGFβ1 activation [2] | IC50 of inhibition of TGFβ1 activation [3] | binding result [14] | binding result [15] | also measured
28G11_hIgG1 (antibody, V domains shown) VH: EVKLVESGGGLVQPGGSLSLSCAASGFTFTDYYMSWVRQPPGKALEWLGFIRNKPNGYTTEYSASVKGRFTISRDNSQSILYLQMNVLRAEDSATYYCARYTGGGYFDYWGQGTTLTVSS VL: DIQMTQTTSSLSASLGDRLTISCRASQDISNYLNWYQQKPDGTVKLLIYYTSRLHSGVPSRFSGSGSGTDYSLTISNLEQADIATYFCQQGDTLPWTFGGGTKLEIK | – | no binding (tested: about 800 ng/well) | no binding | binds | no binding | no binding | no binding (tested: about 800 ng/well) | no binding (tested: 10 µg/mL) | – | – | – | – | IC50 of inhibition of TGFβ1 activation (ELISA of active TGFβ1) [2]: 1.4 µg/mL; IC50 of inhibition of TGFβ1 activation (ELISA of active TGFβ1) [3]: 1 µg/mL; Kd [5]: 0.19 nM; koff [5]: 0.000158 s⁻¹; kon [5]: 840000 M⁻¹ s⁻¹; Kd [6]: 0.67 nM; koff [6]: 0.00036 s⁻¹; kon [6]: 540000 M⁻¹ s⁻¹; Inhibition of human TGFβ1 activation (IC50) [13]: 2.3 µg/mL
17G8_hIgG1 (antibody, V domains shown) VH: EVKLVESGGGLVQPGGSLSLSCAASGFTFTDYYMSWVRQPPGKALEWLGFIRNKANGYTTEYSASVKGRFTISRDNSQSILYLQMNALRAEDSATYYCARYKLGGYFDVWGTGTTVTVSS VL: DIQMTQTTSSLSASLGDRVTISCRASQDISNYLNWYQQKPDGTVKLLIYYTSRLHSGVPSRFSGSGSGTDYSLTISNLEQEDIATYFCQQGNTLPWTFGGGTKLEIK | – | no binding (tested: about 800 ng/well) | no binding | binds | no binding | no binding | no binding (tested: about 800 ng/well) | no binding (tested: 10 µg/mL) | 1 /ml (as printed) and 1.5 ug/ml | 1.4 µg/mL and 0.59 µg/mL | binds | binds | –
